Here are results for 1 substance from US20190345227A1.

In the assay the target is SpyCatcher-elastin-CarHC-elastin-SpyCatcher. Briefly: cell-based or functional assay.

Substance mCherry showed a free mCherry detected in the supernatant of the AAA+BCB hydrogel, under both dark and bright conditions of 50%.
